Experimental data reported in US20210292423A1.
Residue numbers refer to the chain shown, from its start.

B1: CODV-Fab BFX-9F6-G3 × CD3 (bispecific antibody, part only; not given: anti-CD3 arm, linkers, constant domains, V domains shown, not shown: another chain or arm of the molecule; a dimerising Fc or GST; small tags and cut ends)
VL: DIQMTQSPASLSASLGETVTIECRPSEDIHSNVAWYQQKPGNSPQLLIYDASNLADGVPSRFSGSGSGTQYSLKINSLQSEDVASYFCHQYNIYPYTFGSGTKLELK
VH: QVQLQESGPTLVKPGDSVKMSCKASGYTFTDYIIHWVKQSHGKSLEWIGYINPYSDGTNYNEKFKSKATLTVDKSTSTAYMEFSRLTSEDSAIYFCALNYGSYYAMDAWGQGTSVTVSS
B2: 12D2-E5 Fab (Fab, V domains shown)
VH: EVKLVESGGGLVQPGRSLRLSCAASGFNFYAYWMGWVRQAPGKGLEWIGEIKKDGTTINYTPSLKDRFTISRDNAQNTLYLQMTKLGSEDTALYYCAREERDGYFDYWGQGVMVTVSS
VL: QFVLTQPNSVSTNLGSTVKLSCKRSTGNIGSNYVNWYQQHEGRSPTTMIYRDDKRPDGVPDRFSGSIDRSSNSALLTINNVQTEDEADYFCQSYSSGIVFGGGTKLTVL
B3: 12D2-E5 anti-CD3 antibody (hybridoma supernatant) (antibody, V domains shown)
VH: B2 VH
VL: B2 VL
B4: CODV-Fab BFX-6B10-E4 × CD3 (bispecific antibody, part only; not given: CD3 arm, linkers, constant domains, part only)
light, part: NIVMTQSPKSMSISVGDRVTMNCKASQTVGNNIAWYQQKPGLSPQLLIDYASNRYTGVPNRFTGGGYGTDFILTINSVQAEDAAFYYCQRMYNSPTFGGGTKLELK
heavy, part: EVQLVESGGGLVQPGRSLKLSCAASGFTFSHYNMAWVRQAPKKGLEWVATITYDDHSTYYRDSVKGRFTISRDTAKSTLYLQMDSLRSEDTATYYCARLVNYAFAYWGQGTLVTVSS
B5: CODV-Fab 7G3 × OKT3 (bispecific antibody, part only; not given: OKT3 arm, linkers, constant domains, part only)
light, part: DFVMTQSPSSLTVTAGEKVTMSCKSSQSLLNSGNQKNYLTWYLQKPGQPPKLLIYWASTRESGVPDRFTGSGSGTDFTLTISSVQAEDLAVYYCQNDYSYPYTFGGGTKLEIK
heavy, part: EVQLQQSGPELVKPGASVKMSCKASGYTFTDYYMKWVKQSHGKSLEWIGDIIPSNGATFYNQKFKGKATLTVDRSSSTAYMHLNSLTSEDSAVYYCTRSHLLRASWFAYWGQGTLVTVSA
B6: CODV-Fab BFX-2B8-F3 × CD3 (bispecific antibody, part only; not given: CD3 arm, linkers, constant domains, part only)
light, part: EIVLTQSPTSMTASPGEQVTITCRASSSINYMHWYQQKPGASPRPWIYETSKLASGVPDRFSGSASGTSYSLTINNMEAEDAATYYCQQWNYPSWTFGGGTKLELK
heavy, part: EVQLVESGGGLVQPGRSLKLSCAASGFTFSDYNMAWVRQAPKKGLEWVATILYDGGRTYYRGSVKGRFTISRDNAKSTLYLRMDSLRSEDTATYYCATHSRGTDYFDYWGQGVMVTVSS
B7: humanized 4B4 Fab 4B4_11 (VL1_CM3, VH6_BM2) (Fab, V domains shown)
VH: QVQLVESGGRVVQPGRSLRLTCAASGFTFSNAWMHWVRQAPGKQLEWVAQIKARSNNYATYYAESVKGRFTISRDDSKSTIYLQMNSLRAEDTAVYYCRGTYYASKPFDYWGQGTTVTVSS
VL: DVVMTQSPLSLSVTLGQPVSISCRSSQSLVHDNANTYLSWSLQRPGQSPRVLIYKVSNRFSGVPDRFSGSGSGTDFTLKISRVEAEDVGVYYCGQGTQYPFTFGSGTKLEIK
B8: CODV-Fab BFX-2F8-D6 × CD3 (bispecific antibody, part only; not given: anti-CD3 arm, linkers, constant domains, V domains shown, not shown: another chain or arm of the molecule; a dimerising Fc or GST; small tags and cut ends)
VH: QVQLKESGPGLVQPSQTLSLTCTVSGFSLTSYGVSWVRQPPGKGLEWIATISSAGSTYYDLVLKSRLSITRDTSKSQVFLKVHSLQTEDTAIYLCARDAPVFNYGSYNAMDSWGQGTSVTVSS
VL: DIQMTQSPSFLSATVGDRVTINCKASQNINKYLNWYQQKLGEAPKRLIYNTNSLQTGIPSRFSGSGSGTDYTLTISSLQPEDVATYFCLQHKSGLTFGSGTKLEIK
B9: CODV-Fab BFX-3B10-E6 × CD3 (bispecific antibody, part only; not given: CD3 arm, linkers, constant domains, part only)
light, part: DVLMTQTPVSLPVSLGGQVSISCRSSQSLVHSDGDTYLHWYLQKPGQSPQLLIYRVSNRFSGVPDRFSGSGSGTDFTLKISRVEPEDLGLYYCLQTTHFPPWTFGGGTKLEMK
heavy, part: QVQLQQSGPELRRPGSSVRLSCKASGYRIKDFLIHWIKNRPEHGLEWIGWIDPEDGETKYAQKFQTKATLTADTSSNTAYMQLSSLTSEDTATYFCARWGDVYYGLMRGHVMDAWGQGTSVTVSS
B10: CODV-Fab BFX-3E3-D3 × CD3 (bispecific antibody, part only; not given: CD3 arm, linkers, constant domains, part only)
light, part: QFVLTQPNSVSTNLGSTVKLSCKRNTGNIGSNYVNWYQQHEGRSPTTMIYRDDKRPDGVPDRFSGSIDRSSNSALLTINNVQTEDEADYFCQSYSSGINIIFGGGTKLTVL
heavy, part: QVQLQESGPGLVQPSQTLSLTCTVSGFSLTTYDVHWVRQPPGKGLEWMGRIQNGGITDYNSALKSRLIISRDTSKSQVFLKMNSVQTEDTAMYFCAKTGSYFYAFDHWGQGTLVTVSS
B11: CODV-Fab BFX-9B8-G6 × CD3 (bispecific antibody, part only; not given: anti-CD3 arm, linkers, constant domains, V domains shown, not shown: another chain or arm of the molecule; a dimerising Fc or GST; small tags and cut ends)
VL: DIVMTQSPSSLAVSAGETVTINCKSSQSFLSSGDERNYVAWYQHKPGQSPKLLIYWASTRHSGVPDRFIGSGSGTDFTLTISSVQAEDLAIYYCQQYYDTPLTFGSGTKLEIK
VH: EVKLQESGPSLVQSSQTLSLTCTVSGFSLTSYHIHWVRQPPGKGLEWMGVMWSDGDTSYSSALKSRLSISRDTSQSQVFLKMNSLQTEDTATYYCARGDYSSYIYLWFAYWGQGTLVTVSS
B12: CODV-Fab BFX-9D7-C8 × CD3 (bispecific antibody, part only; not given: anti-CD3 arm, linkers, constant domains, V domains shown, not shown: another chain or arm of the molecule; a dimerising Fc or GST; small tags and cut ends)
VL: B11 VL with A15E, E35G, R36K, H44Y, H61Q, S83T
VH: B11 VH with P40T, S60N, D99Y, I104L
B13: 5B1-G2 anti-CD3 antibody (hybridoma supernatant) (antibody, V domains shown)
VH: EVQVVETGGSLVQPGKSLKLTCATSGFSFSNAWMHWVRQSPEKQLEWVAQIKDKANNYATYYAESVKGRFTISRDDSKGSIYLQMNSLKEEDTAVYYCRGLYYGLFPSDYWGQGVMVTVSS
VL: DVVMTQTPVSLSVSLGGQVSISCRSSQSLVHNNGNTYLSWYLLKPGQSPQLLIYKVSNRFSGISDRFSGGGSGTDFTLKISRLEPDDLGIYYCGQGTQYPFTFGSGTKLEIK
B14: 5B1-G2 Fab (Fab, V domains shown)
VH: B13 VH
VL: B13 VL

How the values were obtained:
[1] = target: human CD123 (IL3RA) on cells (human) (UniProt P26951); test: flow cytometry, TF-1 cells, 3 µg antibody
[2] = target: human CD123 (IL3RA) on cells (human) (UniProt P26951); test: flow cytometry, THP-1 cells, 3 µg antibody
[3] = target: human CD123 (IL3RA) on cells (human) (UniProt P26951); test: cell-based or functional assay
[4] = target: Macaca fascicularis CD3ε/δ-Fc fusion protein (Macaca fascicularis) (UniProt Q95LI8); test: SPR Biacore, ratio against human CD3εδ
[5] = target: Macaca fascicularis CD3ε/δ-Fc fusion protein (Macaca fascicularis) (UniProt Q95LI8); test: SPR single point, hybridoma supernatant
[6] = target: Macaca fascicularis CD3ε/δ-Fc fusion protein (Macaca fascicularis) (UniProt Q95LI8); test: SPR Biacore, Fab

Macaca fascicularis CD3ε/δ-Fc fusion protein (Macaca fascicularis), sequence (chain, as listed by the source mutant, chain 1 of 2): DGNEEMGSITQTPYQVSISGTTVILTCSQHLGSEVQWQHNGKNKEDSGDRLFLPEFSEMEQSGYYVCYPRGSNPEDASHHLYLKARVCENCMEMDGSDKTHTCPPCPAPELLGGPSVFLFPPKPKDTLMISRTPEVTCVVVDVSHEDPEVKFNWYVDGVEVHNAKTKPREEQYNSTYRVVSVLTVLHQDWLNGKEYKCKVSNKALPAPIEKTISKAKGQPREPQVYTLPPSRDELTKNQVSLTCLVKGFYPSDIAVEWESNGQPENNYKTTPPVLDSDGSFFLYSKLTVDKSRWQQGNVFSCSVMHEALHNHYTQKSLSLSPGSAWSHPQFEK
Macaca fascicularis CD3ε/δ-Fc fusion protein (Macaca fascicularis), sequence (Q95LI8 22-105, stated change not applied, chain 2 of 2): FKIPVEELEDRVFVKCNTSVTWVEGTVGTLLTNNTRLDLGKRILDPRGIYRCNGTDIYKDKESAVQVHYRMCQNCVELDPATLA
human CD123 (IL3RA) on cells (human), sequence (P26951 19-378): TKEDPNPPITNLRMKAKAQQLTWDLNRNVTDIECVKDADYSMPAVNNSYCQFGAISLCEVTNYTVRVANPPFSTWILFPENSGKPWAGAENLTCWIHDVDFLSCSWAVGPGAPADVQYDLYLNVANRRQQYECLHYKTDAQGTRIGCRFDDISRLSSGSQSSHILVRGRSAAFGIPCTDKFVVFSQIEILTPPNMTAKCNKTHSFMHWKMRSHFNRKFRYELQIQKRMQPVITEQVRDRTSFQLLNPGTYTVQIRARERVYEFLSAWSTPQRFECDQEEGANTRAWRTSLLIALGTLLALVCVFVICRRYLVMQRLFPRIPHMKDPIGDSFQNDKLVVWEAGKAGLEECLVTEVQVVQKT

| Binder | % FITC positive Cells [1] [%] | % FITC positive Cells [2] [%] | EC50 [ng/ml] geomean, cytotoxic assay on THP-1 [3] [ng/mL] | other results |
| --- | --- | --- | --- | --- |
| B1 | 60.7 | 99.7 | 13.9 | – |
| B2 | – | – | – | Ratio KD(cy)/KD(hu) [4]: 4 |
| B3 | – | – | – | RU at 25 nM [5]: 5 RU |
| B4 | – | – | 39.7 | – |
| B5 | – | – | – | Activity EC50 [ng/ml], cytotoxic assay on THP-1 with human T cells [3]: 16 ng/mL |
| B6 | – | – | 107 | – |
| B7 | – | – | – | Kd [6]: 20.4 nM; koff [6]: 0.00486 s⁻¹; kon [6]: 238000 M⁻¹ s⁻¹ |
| B8 | 9.3 | 24 | – | – |
| B9 | – | – | 429 | – |
| B10 | 31.6 | 99 | 12.2 | – |
| B11 | 31.1 | 48.8 | 106 | – |
| B12 | 50.2 | 88.7 | 86.3 | – |
| B13 | – | – | – | RU at 25 nM [5]: 0.5 RU |
| B14 | – | – | – | Ratio KD(cy)/KD(hu) [4]: 1 |
